From publication PMC8994517 (Nature, 2021)

Molecular target: Human Hsp90α (human, UniProt P07900 1-732)
Assay: cryo-EM structure

B1: Human p23 (natural protein, UniProt Q15185 1-160, looked up)
chain: MQPASAKWYDRRDYVFIEFCVEDSKDVNVNFEKSKLTFSCLGGSDNFKHLNEIDLFHCIDPNDSKHKRTDRSILCCLRKGESGQSWPRLTKERAKLNWLSVDFNNWKDWEDDSDEDMSNFDRFSEMMNNMGGDEDVDLPEVDGADDDSQDSDDEKMPDLE
stoichiometry N: 1 p23 per Hsp90 dimer
